Tests used:
[1] = target: T1, Amino acid residues 82-101 of human TNFR2 (human); test: ELISA on TNFR2 peptide fragment; categorical score, 0 lowest to 4 highest affinity
T1 peptide: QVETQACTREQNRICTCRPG

[2] = target: T2, Amino acid residues 1-20 of human TNFR2 (human); test: as above
T2 construct: 20-mer fragment
T2 peptide: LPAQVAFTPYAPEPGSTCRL

[3] = target: T3, Amino acid residues 58-77 of human TNFR2 (human); test: as above
T3 peptide: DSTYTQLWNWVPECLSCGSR

[4] = target: T4, Amino acid residues 66-85 of human TNFR2 (human); test: as above
T4 peptide: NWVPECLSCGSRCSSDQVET

[5] = target: T5, Amino acid residues 146-165 of human TNFR2 (human); test: as above
T5 peptide: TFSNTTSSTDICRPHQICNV

[6] = target: T6, Amino acid residues 122-141 of human TNFR2 (human); test: as above
T6 peptide: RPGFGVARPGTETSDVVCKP

[7] = target: T7, Amino acid residues 170-189 of human TNFR2 (human); test: as above
T7 peptide: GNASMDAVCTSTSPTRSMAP

[8] = target: T8, Amino acid residues 154-174 of human TNFR2 (human); test: as above
T8 peptide: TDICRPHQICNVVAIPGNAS

[9] = target: T9, Amino acid residues 114-133 of human TNFR2 (human); test: as above
T9 peptide: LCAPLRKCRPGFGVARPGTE

[10] = target: T10, Amino acid residues 90-109 of human TNFR2 (human); test: as above
T10 peptide: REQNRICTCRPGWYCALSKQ

[11] = target: T11, Amino acid residues 138-157 of human TNFR2 (human); test: as above
T11 peptide: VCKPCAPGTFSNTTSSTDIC

[12] = target: T12, Amino acid residues 50-69 of human TNFR2 (human); test: as above
T12 peptide: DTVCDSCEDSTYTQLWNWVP

[13] = target: T13, Amino acid residues 17-36 of human TNFR2 (human); test: as above
T13 peptide: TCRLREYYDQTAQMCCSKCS

[14] = target: T14, Amino acid residues 42-61 of human TNFR2 (human); test: as above
T14 peptide: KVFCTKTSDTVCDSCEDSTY

[15] = target: T15, Amino acid residues 9-28 of human TNFR2 (human); test: as above
T15 peptide: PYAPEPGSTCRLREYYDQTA

[16] = target: T16, Amino acid residues 162-181 of human TNFR2 (human); test: as above
T16 peptide: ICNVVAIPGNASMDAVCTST

[17] = target: T17, Amino acid residues 74-93 of human TNFR2 (human); test: as above
T17 peptide: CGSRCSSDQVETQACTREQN

[18] = target: T18, Amino acid residues 130-149 of human TNFR2 (human); test: as above
T18 peptide: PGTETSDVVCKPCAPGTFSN

[19] = target: Full-length human TNFR2 (human) (UniProt P20333); test: ELISA; categorical score, 0 lowest to 4 highest affinity
[20] = target: T1, Amino acid residues 82-101 of human …; test: ELISA, antibody alone
[21] = target: T10, Amino acid residues 90-109 of human …; test: ELISA, antibody alone
[22] = target: T14, Amino acid residues 42-61 of human TNFR2; test: ELISA, antibody alone
[23] = target: T15, Amino acid residues 9-28 of human TNFR2; test: ELISA, antibody alone
[24] = target: T17, Amino acid residues 74-93 of human TNFR2; test: ELISA, antibody alone
[25] = target: T19, Amino acid residues 108-127 of human TNFR2 (human); test: ELISA on TNFR2 peptide fragment; categorical score, 0 lowest to 4 highest affinity
T19 sequence (peptide): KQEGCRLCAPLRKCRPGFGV

[26] = target: T20, Amino acid residues 106-125 of human TNFR2 (human); test: as above
T20 sequence (peptide): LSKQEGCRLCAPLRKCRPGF

[27] = target: T21, Amino acid residues 34-53 of human TNFR2 (human); test: as above
T21 sequence (peptide): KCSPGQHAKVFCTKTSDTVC

[28] = target: T22, Amino acid residues 26-45 of human TNFR2 (human); test: as above
T22 sequence (peptide): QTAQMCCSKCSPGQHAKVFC

[29] = target: T23, Amino acid residues 98-117 of human TNFR2 (human); test: as above
T23 sequence (peptide): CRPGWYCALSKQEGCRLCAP

B1: agonistic TNFR2 antibody TNFRAG1 (antibody, V domains shown)
VH: EVQLQQFGAELVKPGASVKISCKASGYTFTDYNIDWVKQSHGKSLEWIGDINPNYDSTSYSQKFRGKATLTVDKSSSTAYMELRSLTSEDTAVYYCARGNSWYFDVWGAGTTVTVSS
VL: QIVLTQSPALMSASPGEKVTMTCSASSSVRYMYWYQQKPRSSPKPWIYLTSNLASGVPARFSGSGSGTSYSLTISSMEAEDAATYYCQQWSSNPLTFGAGTKLELK
notes: the primary antibodies were detected with secondary antibodies against rodent IgG; also called monoclonal TNFR2 antibody TNFRAG1; TNFR2 agonist antibody
B1 was tested, and the “Affinity Score” value [1] was 0, the “Affinity Score” value [2] was 0 and the “Affinity Score” value [3] was 0. The “Affinity Score” value [4] was 0, the “Affinity Score” value [5] was 0 and the “Affinity Score” value [6] was 0. For the same binder, the “Affinity Score” value [7] was 0, the “Affinity Score” value [8] was 0 and the “Affinity Score” value [9] was 0. For the same binder, the “Affinity Score” value [10] was 2, the “Affinity Score” value [11] was 0 and the “Affinity Score” value [12] was 0. For the same binder, the “Affinity Score” value [13] was 0, the “Affinity Score” value [14] was 0 and the “Affinity Score” value [15] was 0. The “Affinity Score” value [16] was 0, the “Affinity Score” value [17] was 0 and the “Affinity Score” value [18] was 0. The Affinity Score [19] was 4, the Reading [20] was 2 and the Reading [21] was 2. For the same binder, the binding result [22] was “no binding”, the binding result [23] was “no binding” and the Reading [24] was 2. The Affinity Score [25] was 2, the Affinity Score [26] was 2 and the Affinity Score [27] was 0. For the same binder, the Affinity Score [28] was 1 and the Affinity Score [29] was 1.
